Data published in paper PMC8249653.

Substrate: C[C@H](O)C(=O)O
Experiment: cells, lysate or membranes
Conditions: pH 7.3, 37 °C, 2 min uptake, 1-100 µM L-lactate, labelled compound (14C tracer spike)

B1: Slc16a13 (SLC16A13/MCT13) (Mus musculus) (protein)
chain: MVRRAEPPDGGWGWMVVLSAFFQSALVFGVLRSFGVFFVEFVAAFEEQAARVSWIASIGIAVQQFGSPIGSALSTKLGPRPVVMTGGILAALGMLLASFATSLTHLYLSIGLLSGSGWALTFTPTMACLSRYFSQRRSLAMGLALTGVGISSFAFAPLFQWLINNYAWRGALLLVSALSLHLMACGALLRPLSLTEDAAVGGPGAQITSLLRHGPFLRYTAALTLINTGFFIPYVHLVAHLQDLGWDPLPAAFLLSVAAVSDLVGRVASGWLGDAVPGPVARLLMLWTTLTGVSLALFPVAQASSTLVVLAVAYGFTSGALTPVAFSVLPELVGTGRIYCGMGLVQMIESIGGLLGAPLSGYLRDVTGNYTASFVVAGAFLLAGSGVLLTLPHFFSCISVSTSRPQDLVIEASDTKIPLPKEEGLGEN
  Km: 0.47 ± 0.35 µM
